Measurements reported in patent US20150276749A1 (KONICA MINOLTA, published 2015).

What was measured:
[1] = target: soluble-type human DSG3-mouse IgG2aFc fusion protein (human; mouse) (UniProt P32926); assay: sandwich ELISA, antigen in PBS(-); immobilized MAB1720, detection biotinylated DF151
[2] = target: soluble-type human DSG3-mouse IgG2aFc fusion protein (human; mouse) (UniProt P32926); assay: sandwich ELISA, luminescence over blank; immobilized MAB1720, detection DF151; antigen 25000 pg/mL
[3] = target: soluble-type human DSG3-mouse IgG2aFc fusion protein (human; mouse) (UniProt P32926); assay: sandwich ELISA, luminescence over blank; immobilized MAB1720, detection DF151; antigen 10 pg/mL
[4] = target: soluble-type human DSG3-mouse IgG2aFc fusion protein (human; mouse) (UniProt P32926); assay: sandwich ELISA, antigen added to human serum; immobilized MAB1720, detection biotinylated DF151
[5] = target: soluble-type human DSG3-mouse IgG2aFc fusion protein (human; mouse) (UniProt P32926); assay: sandwich ELISA, luminescence over blank; immobilized MAB1720, detection DF151; antigen 1000 pg/mL
[6] = target: soluble-type human DSG3-mouse IgG2aFc fusion protein (human; mouse) (UniProt P32926); assay: sandwich ELISA, antigen in PBS(-); immobilized MAB1720, detection biotinylated MAB1720
[7] = target: soluble-type human DSG3-mouse IgG2aFc fusion protein (human; mouse) (UniProt P32926); assay: sandwich ELISA, luminescence over blank; immobilized MAB1720, detection DF151; antigen 5000 pg/mL
[8] = target: soluble-type human DSG3-mouse IgG2aFc fusion protein (human; mouse) (UniProt P32926); assay: sandwich ELISA, antigen in PBS(-); immobilized MAB1720, detection biotinylated D219-3
[9] = target: soluble-type human DSG3-mouse IgG2aFc fusion protein (human; mouse) (UniProt P32926); assay: sandwich ELISA, antigen in PBS(-); immobilized MAB1720, detection biotinylated DF366m
[10] = target: soluble-type human DSG3-mouse IgG2aFc fusion protein (human; mouse) (UniProt P32926); assay: sandwich ELISA, luminescence over blank; immobilized MAB1720, detection DF151; antigen 200 pg/mL
[11] = target: soluble-type human DSG3-mouse IgG2aFc fusion protein (human; mouse) (UniProt P32926); assay: sandwich ELISA, luminescence over blank; immobilized MAB1720, detection DF151; antigen 1 pg/mL
[12] = target: soluble-type human DSG3-mouse IgG2aFc fusion protein (human; mouse) (UniProt P32926); assay: sandwich ELISA, luminescence over blank; immobilized MAB1720, detection DF151; antigen 40 pg/mL
[13] = target: soluble-type human DSG3-mouse IgG2aFc fusion protein (human; mouse) (UniProt P32926); assay: SPFS sandwich; immobilized MAB1720, detection DF151; antigen 1,000 pg/mL (µg/mL in the source)
[14] = target: T1, soluble-type human DSG3-mouse IgG2aFc fusion protein (human; mouse, UniProt P32926 50-616); assay: sandwich ELISA, luminescence over blank; immobilized DF366m, detection DF151; antigen 10 pg/mL
T1 construct: also called human desmoglein 3; desmoglein 3 standard; not shown: mouse IgG2a Fc, printed 'mouse IgG2aFc' and 'mouse IgG2 constant region'
T1 sequence: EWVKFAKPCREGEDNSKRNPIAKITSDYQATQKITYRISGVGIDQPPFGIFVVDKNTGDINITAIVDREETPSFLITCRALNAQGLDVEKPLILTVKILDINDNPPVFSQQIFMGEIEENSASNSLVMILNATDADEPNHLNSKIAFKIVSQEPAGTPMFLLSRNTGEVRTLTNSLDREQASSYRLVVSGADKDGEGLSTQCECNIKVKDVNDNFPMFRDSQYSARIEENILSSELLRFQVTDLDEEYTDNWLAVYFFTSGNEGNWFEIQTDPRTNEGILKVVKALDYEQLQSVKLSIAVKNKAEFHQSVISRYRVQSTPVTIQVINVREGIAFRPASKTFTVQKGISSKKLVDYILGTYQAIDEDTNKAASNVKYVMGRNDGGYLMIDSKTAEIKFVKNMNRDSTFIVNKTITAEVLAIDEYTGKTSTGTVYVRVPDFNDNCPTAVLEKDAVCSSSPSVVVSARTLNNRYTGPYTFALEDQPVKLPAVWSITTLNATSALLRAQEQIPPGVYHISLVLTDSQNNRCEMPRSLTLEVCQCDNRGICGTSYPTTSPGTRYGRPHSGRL
Method: (§1) Subsequently, the antigen solutions having the above-described concentrations were each added to the plate in an amount of 50 μL/well, and the plate was incubated at room temperature for 1 hour. Then, the antigen solution was removed, and the plate was washed with 0.05% Tween 20-PBS three times. Thereafter, the 1-μg/mL biotinylated antibody solution was added in an amount of 50 μL/well, and the plate was incubated at room temperature for 1 hour.
(§2) Then, after removing the streptavidin-HRP solution and washing the plate with 0.05% Tween 20-PBS three times, a substrate solution (SuperSignal ELISA Femto Maximum Sensitivity Substrate (registered trademark); Pierce Biotechnology, Inc.) was added in an amount of 100 μL/well. One minute thereafter, the luminescence intensity was measured using a luminometer, Fluoroskan Ascent FL (trade name, Thermo Electron Corporation).
(§3) The numerical values shown in Table 1 represent the minimum values of the antigen solution concentration having an S/N ratio of higher than 2 (hereinafter, referred to as “detection limit concentration”) and the unit of the numerical values is pg/mL. […]

[15] = target: T1, soluble-type human DSG3-mouse IgG2aFc …; assay: sandwich ELISA, luminescence over blank; immobilized DF366m, detection MAB1720; antigen 5000 pg/mL
Method: as §1, §2
(§4) The numerical values shown in Table 1 represent the minimum values of the antigen solution concentration having an S/N ratio of higher than 2 (hereinafter, referred to as “detection limit concentration”) and the unit of the numerical values is pg/mL. The S/N ratio was determined by dividing the luminescence intensity at the respective antigen solution concentrations ([…]) by the luminescence intensity of an antigen-free blank antigen solution (0 μg/mL).

[16] = target: T1, soluble-type human DSG3-mouse IgG2aFc …; assay: sandwich ELISA, luminescence over blank; immobilized DF366m, detection MAB1720; antigen 1000 pg/mL
Method: as §1, §2, §4

[17] = target: T1, soluble-type human DSG3-mouse IgG2aFc …; assay: sandwich ELISA, luminescence over blank; immobilized DF366m, detection DF151; antigen 40 pg/mL
Method: as §1, §2, §4

[18] = target: T1, soluble-type human DSG3-mouse IgG2aFc …; assay: SPFS sandwich; immobilized DF366 (so in the source), detection MAB1720; antigen 1,000 pg/mL (µg/mL in the source)
Method: (§5) Once again, a Tris-buffered saline (TBS) containing 0.05% by mass of Tween 20 was fed and circulated in the flow path for 10 minutes to wash the flow path. Then, with the flow path being filled with PBS buffer (pH 7.4), the assay area was irradiated with laser light (640 nm, 40 μW) from the back side of the metal thin films, and the fluorescence intensity was measured using a photomultiplier tube (PMT) arranged above the assay area. The thus measured value was defined as “signal” (S) at a desmoglein 3 concentration of 100 μg/mL.
(§6) Further, the fluorescence intensity was measured by the same procedures as described above, except that the desmoglein 3 concentration of the fed PBS solution was changed to 10,000 μg/mL, 5,000 μg/mL, 1,000 μg/mL, 200 μg/mL, 50 μg/mL, 10 μg/mL, 3.16 μg/mL, 1 μg/mL, 0.316 μg/mL, 0.1 μg/mL and 0.031 μg/mL. The thus measured values were each defined as “signal” (S) at the respective concentrations.
In addition, when the antibody combination was variously changed in the same manner as in Example 1, it was confirmed that plots similar to the one shown in FIG. 6 can be obtained.

[19] = target: T1, soluble-type human DSG3-mouse IgG2aFc …; assay: sandwich ELISA, luminescence over blank; immobilized DF366m, detection DF151; antigen 5000 pg/mL
Method: as §1, §2, §4

[20] = target: T1, soluble-type human DSG3-mouse IgG2aFc …; assay: sandwich ELISA, luminescence over blank; immobilized DF366m, detection MAB1720; antigen 200 pg/mL
Method: as §1, §2, §4

[21] = target: T1, soluble-type human DSG3-mouse IgG2aFc …; assay: sandwich ELISA, luminescence over blank; immobilized DF366m, detection DF151; antigen 200 pg/mL
Method: as §1, §2, §4

[22] = target: T1, soluble-type human DSG3-mouse IgG2aFc …; assay: sandwich ELISA, luminescence over blank; immobilized DF366m, detection DF151; antigen 25000 pg/mL
Method: as §1, §2, §4

[23] = target: T1, soluble-type human DSG3-mouse IgG2aFc …; assay: sandwich ELISA, luminescence over blank; immobilized DF366m, detection MAB1720; antigen 1 pg/mL
Method: as §1, §2, §4

[24] = target: T1, soluble-type human DSG3-mouse IgG2aFc …; assay: sandwich ELISA, luminescence over blank; immobilized DF366m, detection MAB1720; antigen 25000 pg/mL
Method: as §1, §2, §4

[25] = target: T1, soluble-type human DSG3-mouse IgG2aFc …; assay: sandwich ELISA, luminescence over blank; immobilized DF366m, detection DF151; antigen 1 pg/mL
Method: as §1, §2, §3

[26] = target: T1, soluble-type human DSG3-mouse IgG2aFc …; assay: sandwich ELISA, luminescence over blank; immobilized DF366m, detection MAB1720; antigen 40 pg/mL
Method: as §1, §2, §4

[27] = target: T1, soluble-type human DSG3-mouse IgG2aFc …; assay: sandwich ELISA, luminescence over blank; immobilized DF366m, detection DF151; antigen 1000 pg/mL
Method: as §1, §2, §4

[28] = target: T1, soluble-type human DSG3-mouse IgG2aFc …; assay: SPFS sandwich; immobilized DF366m, detection DF151; antigen 1,000 pg/mL (µg/mL in the source)
Method: as §5
On another front, the fluorescence intensity was also measured by the same procedures as described above, except that a PBS solution containing no desmoglein 3 (0 μg/mL) was fed in place of the PBS solution containing 100 μg/mL of desmoglein 3. The thus measured value was defined as “noise” (N).
as §6

[29] = target: T1, soluble-type human DSG3-mouse IgG2aFc …; assay: sandwich ELISA, luminescence over blank; immobilized DF366m, detection MAB1720; antigen 10 pg/mL
Method: as §1, §2, §3

MAB1720 antibody (R&D Systems, Inc., Catalog No.: MAB1720)
detection limit concentration (lowest antigen concentration with S/N > 2) [1]: 1000 pg/mL | S/N ratio [2]: 53 | S/N ratio [3]: 1.1 | detection limit concentration [4]: 1000 pg/mL | S/N ratio [5]: 2.8 | detection limit concentration (lowest antigen concentration with S/N > 2) [6]: 5000 pg/mL | S/N ratio [7]: 11.4 | detection limit concentration (lowest antigen concentration with S/N > 2) [8]: 5000 pg/mL | detection limit concentration (lowest antigen concentration with S/N > 2) [9]: 5000 pg/mL | S/N ratio [10]: 1.3 | S/N ratio [11]: 0.9 | S/N ratio [12]: 1 | S/N ratio [13]: 34.5

B1: DF366m (DF366m[I] antibody) (antibody, mouse IgG2a, kappa, V domains shown)
VH: EVQLQQSGPELVKPGASVKISCKASGYTFTDYNMDWVKQSHGESLEWIGYIYPNNGGSGYNQKFKSKATLTVDKSSSTAYMELHSLTSEDSAVYYCARRDSYYGFDMAWFAYWGQGTLVTVSA
VL: DIQMTQSPASLSASVGETVTITCRPSENIYNNLAWYQQKQGKSPQLLVYVATNLAEGVPSRFSGSGSGTRFSLKINSLQPEDFGKYYCQHSYGTPWTFGGGTKLEIKR
notes: Complete antibody; Plain when immobilized; biotinylated (Biotin-AC5-Osu) when used as detection antibody; also called DF366m antibody
S/N ratio [14]: 1.1 | S/N ratio [15]: 16.6 | S/N ratio [16]: 3.9 | S/N ratio [17]: 1.2 | S/N ratio [18]: 92.2 | S/N ratio [19]: 37.3 | S/N ratio [20]: 1.8 | S/N ratio [21]: 2.3 | S/N ratio [22]: 186 | S/N ratio [23]: 0.9 | S/N ratio [24]: 80.4 | S/N ratio [25]: 1 | S/N ratio [26]: 0.9 | S/N ratio [27]: 8.1 | S/N ratio [28]: 140 | S/N ratio [29]: 1
